Source: paper PMC5670179, “Folding of a bacterial integral outer membrane protein is initiated in the periplasm” (Nature Communications, 2017)

B1: HA-UpaGΔ2 (domain or fragment)
chain: AGVNATDAVNVSQLKSSEAGGVRYDTKADGSIDYSNITLGGGNSGTTRISNVSAGVNNNDAVNYAQLKQSVQETKQYTDQRMVEMDNKLSKTESKLSGGIASAMAMTGLPQAYTPGASMASIGGGTYNGESAVALGVSMVSANGRWVYKLQGSTNSQGEYSAALGAGIQW
notes: UpaG, trimeric autotransporter adhesin of uropathogenic E. coli O6:H1 strain CFT073; the C-terminal 170 residues (passenger-domain fragment 1609-1689 and beta-domain segment 1689-1778) of the 1778 residue full-length protein; Made with the native UpaG signal peptide (residues 1-53) before the HA tag; the signal peptide is meant to be cleaved on export; Two glycines were inserted between signal …

What was measured:
[1] = target: His10-UpaGΔ2(Y1735am) (E. coli O6:H1 strain CFT073); experiment: SDS-PAGE of unheated (25 °C) against heated (99 °C) samples after Ni-NTA purification; cells radiolabelled, UV irradiated and PK treated; membranes solubilised in 2% DDM, Ni-NTA in 50 mM NaH2PO4 pH 8, 500 mM NaCl, 0.05% DDM; eluate kept at 25 or 99 °C in SDS sample buffer for 5 min
[2] = target: the molecule itself; experiment: SDS- and heat-resistant oligomers on SDS-PAGE after pulse-chase labelling and immunoprecipitation; cells grown in M9 minimal medium at 37 °C, pTrc99a derivatives; TCA precipitation, immunoprecipitation with anti-HA or anti-UpaG antiserum, samples heated to 99 °C for 5 min, 8-16% Tris-glycine gels

Molecule | stoichiometry N [1] | stoichiometry N [2]
His10-UpaGΔ2(Y1735am) (from UniProt A0A0H2VCA1 1609-1778) (domain or fragment) | 3 | –
B1 | – | 3
